The target in the test is integrin αIIbβ3 (human) (UniProt P05106). The test can be described thus: epifluorescence microscopy of co-clustering on giant unilamellar vesicles.

The source of these data is publication doi:10.1101/2022.10.07.511266.

Turning to “mCherry-kindlin-2 (from UniProt Q96AC1 1-680) (natural protein)”, the stoichiometry N (kindlin:integrin) is 3. The same substance came in with a stoichiometry N (scale: kindlin:integrin) of 4.
For the substance eGFP-talin F2-F3 (domain or fragment), the stoichiometry N (talin:integrin) was 2. The substance also gave a stoichiometry N (scale: talin:integrin) of 3.
